B3: full-length OdhA from Corynebacterium glutamicum ATCC13032 (enzyme, UniProt Q8NRC3 1-1221, looked up)
chain: MSSASTFGQNAWLVDEMFQQFQKDPKSVDKEWRELFEAQGGPNTTPATTEAQPSAPKESAKPAPKAAPAAKAAPRVETKPADKTAPKAKESSVPQQPKLPEPGQTPIRGIFKSIAKNMDISLEIPTATSVRDMPARLMFENRAMVNDQLKRTRGGKISFTHIIGYAMVKAVMAHPDMNNSYDVIDGKPTLIVPEHINLGLAIDLPQKDGSRALVVAAIKETEKMNFSEFLAAYEDIVARSRKGKLTMDDYQGVTVSLTNPGGIGTRHSVPRLTKGQGTIIGVGSMDYPAEFQGASEDRLAELGVGKLVTITSTYDHRVIQGAVSGEFLRTMSRLLTDDSFWDEIFDAMNVPYTPMRWAQDVPNTGVDKNTRVMQLIEAYRSRGHLIADTNPLSWVQPGMPVPDHRDLDIETHNLTIWDLDRTFNVGGFGGKETMTLREVLSRLRAAYTLKVGSEYTHILDRDERTWLQDRLEAGMPKPTQAEQKYILQKLNAAEAFENFLQTKYVGQKRFSLEGAEALIPLMDSAIDTAAGQGLDEVVIGMPHRGRLNVLFNIVGKPLASIFNEFEGQMEQGQIGGSGDVKYHLGSEGQHLQMFGDGEIKVSLTANPSHLEAVNPVMEGIVRAKQDYLDKGVDGKTVVPLLLHGDAAFAGLGIVPETINLAKLRGYDVGGTIHIVVNNQIGFTTTPDSSRSMHYATDYAKAFGCPVFHVNGDDPEAVVWVGQLATEYRRRFGKDVFIDLVCYRLRGHNEADDPSMTQPKMYELITGRETVRAQYTEDLLGRGDLSNEDAEAVVRDFHDQMESVFNEVKEGGKKQAEAQTGITGSQKLPHGLETNISREELLELGQAFANTPEGFNYHPRVAPVAKKRVSSVTEGGIDWAWGELLAFGSLANSGRLVRLAGEDSRRGTFTQRHAVAIDPATAEEFNPLHELAQSKGNNGKFLVYNSALTEYAGMGFEYGYSVGNEDSIVAWEAQFGDFANGAQTIIDEYVSSGEAKWGQTSKLILLLPHGYEGQGPDHSSARIERFLQLCAEGSMTVAQPSTPANHFHLLRRHALSDLKRPLVIFTPKSMLRNKAAASAPEDFTEVTKFQSVINDPNVADAAKVKKVMLVSGKLYYELAKRKEKDGRDDIAIVRIEMLHPIPFNRISEALAGYPNAEEVLFVQDEPANQGPWPFYQEHLPELIPNMPKMRRVSRRAQSSTATGVAKVHQLEEKQLIDEAFEA

The target in data set [1] is B3. The experiment in a line: cryo-EM structure.
Data set [2] deals with the molecule itself. The experiment in a line: crystal structure.
The data set “AUC” concerns the molecule itself. Put plainly: AUC.
Data set [3] concerns the molecule itself. Put plainly: crystal structure. This is another data set of the same source.

B1: OdhI from Corynebacterium glutamicum ATCC13032 (natural protein, UniProt Q8NQJ3 1-143, looked up)
chain: MSDNNGTPEPQVETTSVFRADLLKEMESSTGTAPASTGAENLPAGSALLVVKRGPNAGARFLLDQPTTTAGRHPESDIFLDDVTVSRRHAEFRINEGEFEVVDVGSLNGTYVNREPRNAQVMQTGDEIQIGKFRLVFLAGPAE
For B1, the “stoichiometry N” value in data set [1] was determined as 1.

B2: full-length KGD from Mycobacterium smegmatis (enzyme, UniProt A0R2B1 1-1227, looked up)
chain: MSSSPSPFGQNEWLVEEMYRKFRDDPSSVDPSWHEFLVDYSPEPTTDSASNGRTTTAAPVTPPTPAPAPAPEPKAAPKPAAKTEAKPAKPAKSATPAKGDESQILRGAAAAVVKNMNASLEVPTATSVRAIPAKLMIDNRVVINNHLKRTRGGKISFTHLLGYAIVQAVKKFPNMNRHFAVVDGKPTAITPAHTNLGLAIDLQGKDGNRSLVVAAIKRCETMRFGQFIAAYEDIVRRARDGKLTAEDFSGVTISLTNPGTLGTVHSVPRLMQGQGAIIGAGAMEYPAEFQGASEERIADLGIGKLITLTSTYDHRIIQGAESGDFLRTIHQLLLDDDFFDEIFRELGIPYEPVRWRTDNPDSIEDKNARVIELIAAYRNRGHLMADIDPLRLDNTRFRSHPDLDVNSHGLTLWDLDREFKVDGFAGVQRKKLRDILSVLRDAYCRHVGVEYTHILEPEQQRWIQERVETKHDKPTVAEQKYILSKLNAAEAFETFLQTKYVGQKRFSLEGAETVIPMMDAVIDQCAEHGLDEVVIAMPHRGRLNVLANIVGKPYSQIFSEFEGNLNPSQAHGSGDVKYHLGATGTYIQMFGDNDIEVSLTANPSHLEAVDPVLEGLVRAKQDLLDTGEEGSDNRFSVVPLMLHGDAAFAGQGVVAETLNLALLRGYRTGGTIHIVVNNQIGFTTAPTDSRSSEYCTDVAKMIGAPIFHVNGDDPEACAWVARLAVDFRQAFKKDVVIDMLCYRRRGHNEGDDPSMTQPYMYDVIDTKRGSRKAYTEALIGRGDISMKEAEDALRDYQGQLERVFNEVRELEKHEIEPSESVEADQQIPSKLATAVDKAMLQRIGDAHLALPEGFTVHPRVRPVLEKRREMAYEGRIDWAFAELLALGSLIAEGKLVRLSGQDTQRGTFTQRHAVIVDRKTGEEFTPLQLLATNPDGTPTGGKFLVYNSALSEFAAVGFEYGYSVGNPDAMVLWEAQFGDFVNGAQSIIDEFISSGEAKWGQLSDVVLLLPHGHEGQGPDHTSGRIERFLQLWAEGSMTIAMPSTPANYFHLLRRHGKDGIQRPLIVFTPKSMLRNKAAVSDIRDFTESKFRSVLEEPMYTDGEGDRNKVTRLLLTSGKIYYELAARKAKENREDVAIVRIEQLAPLPRRRLAETLDRYPNVKEKFWVQEEPANQGAWPSFGLTLPEILPDHFTGLKRISRRAMSAPSSGSSKVHAVEQQEILDTAFG
Turning to B2, in the data set “crystal structure [2]”, the “stoichiometry N” value is 6.

Turning to B3, the “stoichiometry N” value in “AUC” stood at 6.

B4: OdhAΔ97 (domain or fragment, Corynebacterium glutamicum ATCC13032, UniProt Q8NRC3 98-1221, looked up)
chain: KLPEPGQTPIRGIFKSIAKNMDISLEIPTATSVRDMPARLMFENRAMVNDQLKRTRGGKISFTHIIGYAMVKAVMAHPDMNNSYDVIDGKPTLIVPEHINLGLAIDLPQKDGSRALVVAAIKETEKMNFSEFLAAYEDIVARSRKGKLTMDDYQGVTVSLTNPGGIGTRHSVPRLTKGQGTIIGVGSMDYPAEFQGASEDRLAELGVGKLVTITSTYDHRVIQGAVSGEFLRTMSRLLTDDSFWDEIFDAMNVPYTPMRWAQDVPNTGVDKNTRVMQLIEAYRSRGHLIADTNPLSWVQPGMPVPDHRDLDIETHNLTIWDLDRTFNVGGFGGKETMTLREVLSRLRAAYTLKVGSEYTHILDRDERTWLQDRLEAGMPKPTQAEQKYILQKLNAAEAFENFLQTKYVGQKRFSLEGAEALIPLMDSAIDTAAGQGLDEVVIGMPHRGRLNVLFNIVGKPLASIFNEFEGQMEQGQIGGSGDVKYHLGSEGQHLQMFGDGEIKVSLTANPSHLEAVNPVMEGIVRAKQDYLDKGVDGKTVVPLLLHGDAAFAGLGIVPETINLAKLRGYDVGGTIHIVVNNQIGFTTTPDSSRSMHYATDYAKAFGCPVFHVNGDDPEAVVWVGQLATEYRRRFGKDVFIDLVCYRLRGHNEADDPSMTQPKMYELITGRETVRAQYTEDLLGRGDLSNEDAEAVVRDFHDQMESVFNEVKEGGKKQAEAQTGITGSQKLPHGLETNISREELLELGQAFANTPEGFNYHPRVAPVAKKRVSSVTEGGIDWAWGELLAFGSLANSGRLVRLAGEDSRRGTFTQRHAVAIDPATAEEFNPLHELAQSKGNNGKFLVYNSALTEYAGMGFEYGYSVGNEDSIVAWEAQFGDFANGAQTIIDEYVSSGEAKWGQTSKLILLLPHGYEGQGPDHSSARIERFLQLCAEGSMTVAQPSTPANHFHLLRRHALSDLKRPLVIFTPKSMLRNKAAASAPEDFTEVTKFQSVINDPNVADAAKVKKVMLVSGKLYYELAKRKEKDGRDDIAIVRIEMLHPIPFNRISEALAGYPNAEEVLFVQDEPANQGPWPFYQEHLPELIPNMPKMRRVSRRAQSSTATGVAKVHQLEEKQLIDEAFEA
B4: the “stoichiometry N” value in the data set “crystal structure [3]” came out at 6.

A word on the stoichiometry N: it is the number of molecules, sites or subunits per partner or assembly.
